Experimental findings from doi:10.1101/528240 (bioRxiv, 2019) are described below.

Data set [1] concerns the target GII.4 CHDC-1974 norovirus major capsid protein VP1, assembled as virus-like particles (VLPs) (human norovirus GII.4 (CHDC-1974)). Kind of data set: cryo-EM structure.
The data set “cryo-EM structure” deals with the molecule itself. Kind of data set: cryo-EM structure.

In turn, “GII.4 CHDC-1974 norovirus major capsid protein VP1, assembled as virus-like particles (VLPs) (natural protein)” returned a stoichiometry N in data set [1] of 240.

B1: GII.4 NSW-2012 norovirus major capsid protein VP1, assembled as virus-like particles (VLPs) (natural protein, human norovirus GII.4 (NSW-2012), UniProt K4LM89 1-540, looked up)
chain: MKMASSDANPSDGSAANLVPEVNNEVMALEPVVGAAIAAPVAGQQNVIDPWIRNNFVQAPGGEFTVSPRNAPGEILWSAPLGPDLNPYLSHLARMYNGYAGGFEVQVILAGNAFTAGKVIFAAVPPNFPTEGLSPSQVTMFPHIVVDVRQLEPVLIPLPDVRNNFYHYNQSNDPTIKLIAMLYTPLRANNAGDDVFTVSCRVLTRPSPDFDFIFLVPPTVESRTKPFSVPVLTVEEMTNSRFPIPLEKLFTGPSSAFVVQPQNGRCTTDGVLLGTTQLSPVNICTFRGDVTHITGSRNYTMNLASQNWNDYDPTEEIPAPLGTPDFVGKIQGVLTQTTRTDGSTRGHKATVYTGSADFAPKLGRVQFETDTDRDFEANQNTKFTPVGVIQDGGTTHRNEPQQWVLPSYSGRNTHNVHLAPAVAPTFPGEQLLFFRSTMPGCSGYPNMDLDCLLPQEWVQYFYQEAAPAQSDVALLRFVNPDTGRVLFECKLHKSGYVTVAHTGQHDLVIPPNGYFRFDSWVNQFYTLAPMGNGTGRRRAV
For the molecule B1, the “stoichiometry N” value in the data set “cryo-EM structure” was 240.
